Measurements: the supplement of paper PMC10724198
± gives the standard deviation of the averaged measurements.

Columns and labels:
Saccharomyces cerevisiae [1] = test: protein stability index of tFT-peptide fusion (C-terminal peptide) (PSI (0-1 scale)); higher = more stable (slower turnover)
Method: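 MPS profiling in S. cerevisiae of the tFT-X12 degron library: putative degron peptides plus stable controls, 12 aa, fused to the C-terminus of a sfGFP-mCherry timer. Cells are FACS-sorted into 8 mCherry/sfGFP bins and deep-sequenced. PSI runs from 0 (unstable) to 1 (stable). Backgrounds are wild type, das1Δ and doa10Δ at 30 °C, and wild type, das1Δ, cdc34-1 and cdc53-1 at 37 °C; 2-3 technical replicates each.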

Saccharomyces cerevisiae [2] = test: as above; details: genetic background: wild type; temperature: 30 C
[3] = genetic background: cdc34-1, temperature: 37 C
[4] = genetic background: cdc53-1, temperature: 37 C
[5] = genetic background: das1 deletion, temperature: 30 C
[6] = genetic background: das1 deletion, temperature: 37 C
[7] = genetic background: doa10 deletion, temperature: 30 C
[8] = genetic background: wild type, temperature: 30 C
[9] = genetic background: wild type, temperature: 37 C
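Note: PSI is a weighted mean of sequencing reads over stability bins, variants kept only with over 10 reads, mCherry proximal and sfGFP distal, peptide attached via GGGS linker.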

Row | Sequence | protein stability index (Saccharomyces cerevisiae [1]; [3]) | protein stability index (Saccharomyces cerevisiae [1]; [4]) | protein stability index (Saccharomyces cerevisiae [1]; [5]) | protein stability index (Saccharomyces cerevisiae [1]; [6]) | protein stability index (Saccharomyces cerevisiae [1]; [7]) | protein stability index (Saccharomyces cerevisiae [1]; [8]) | protein stability index (Saccharomyces cerevisiae [1]; [9]) | protein stability index (Saccharomyces cerevisiae [2])
1 | FLFFMGVGVVLY | 0.285 ± 0.032 | 0.382 ± 0.029 | 0.314 ± 0.025 | 0.452 ± 0.023 | 0.35 ± 0.039 | 0.325 ± 0.025 | 0.425 ± 0.0071 | 0.295 ± 0.013
2 | FLFIFFFFLISF | 0.208 ± 0.018 | 0.1806 ± 0.00038 | 0.256 ± 0.02 | 0.311 ± 0.027 | 0.344 ± 0.0055 | 0.242 ± 0.021 | 0.295 ± 0.011 | 0.284 ± 0.018
3 | FLFLFLFPFSLI | 0.525 ± 0.047 | 0.571 ± 0.0084 | 0.476 ± 0.016 | 0.567 ± 0.009 | 0.393 ± 0.0097 | 0.386 ± 0.0079 | 0.4997 ± 0.0009 | 0.431 ± 0.0054
4 | FLIFGMVDFAVV | 0.247 ± 0.035 | 0.3554 ± 0.0029 | 0.231 ± 0.04 | 0.3883 ± 0.0012 | 0.202 ± 0.0019 | 0.226 ± 0.019 | 0.387 ± 0.035 | 0.331 ± 0.018
5 | FLIFVVIGGVGL | 0.259 ± 0.0043 | 0.395 ± 0.016 | 0.281 ± 0.027 | 0.466 ± 0.013 | 0.2268 ± 0.0012 | 0.276 ± 0.023 | 0.435 ± 0.057 | 0.2837 ± 0.0028
6 | FLLELRFTCSYS | 0.383 ± 0.026 | 0.454 ± 0.021 | 0.407 ± 0.014 | 0.4415 ± 0.00066 | 0.403 ± 0.013 | 0.406 ± 0.023 | 0.4158 ± 0.0028 | 0.431 ± 0.013
7 | FLLFFVLRLLPC | 0.272 ± 0.0094 | 0.293 ± 0.03 | 0.236 ± 0.035 | 0.396 ± 0.016 | 0.255 ± 0.013 | 0.231 ± 0.026 | 0.376 ± 0.011 | 0.316 ± 0.018
8 | FLPGEAVFVYCR | 0.619 ± 0.016 | 0.616 ± 0.037 | 0.372 ± 0.026 | 0.627 ± 0.011 | 0.365 ± 0.017 | 0.391 ± 0.028 | 0.64997 ± 0.00056 | 0.4334 ± 0.0032
9 | FLSVGFSCSFVC | 0.674 ± 0.082 | 0.676 ± 0.034 | 0.599 ± 0.06 | 0.669 ± 0.04 | 0.375 ± 0.024 | 0.4115 ± 0.0017 | 0.609 ± 0.013 | 0.4939 ± 0.00094
10 | FLSVLPLFAFFA | 0.581 ± 0.026 | 0.658 ± 0.045 | 0.552 ± 0.025 | 0.68 ± 0.028 | 0.219 ± 0.011 | 0.258 ± 0.014 | 0.4221 ± 0.0032 | 0.333 ± 0.0081
11 | FLVCTFCRWVWL | 0.476 ± 0.079 | 0.6 ± 0.039 | 0.448 ± 0.028 | 0.606 ± 0.025 | 0.165 ± 0.023 | 0.162 ± 0.012 | 0.249 ± 0.018 | 0.233 ± 0.056
12 | FLVFPLLIQFFL | 0.2311 ± 0.0022 | 0.303 ± 0.015 | 0.356 ± 0.04 | 0.4346 ± 0.0039 | 0.346 ± 0.0097 | 0.257 ± 0.014 | 0.323 ± 0.014 | 0.36 ± 0.019
13 | FPLGAQTWLCLS | 0.645 ± 0.084 | 0.714 ± 0.012 | 0.609 ± 0.018 | 0.729 ± 0.022 | 0.199 ± 0.0021 | 0.24 ± 0.032 | 0.466 ± 0.036 | 0.318 ± 0.0065
14 | FPLPPPGSPPPL | 0.68 ± 0.035 | 0.7381 ± 0.0033 | 0.6712 ± 0.0062 | 0.735 ± 0.0085 | 0.682 ± 0.0071 | 0.677 ± 0.011 | 0.707 ± 0.014 | 0.0293 ± 0.02
15 | FRFFYLPVSVVA | 0.0275 ± 0.013 | 0.0356 ± 0.0058 | 0.146 ± 0.036 | 0.1275 ± 0.00029 | 0.105 ± 0.02 | 0.142 ± 0.021 | 0.0865 ± 0.013 | 0.223 ± 0.027
16 | FRHKLSLGLVIV | 0.54 ± 0.037 | 0.555 ± 0.073 | 0.396 ± 0.029 | 0.56 ± 0.0072 | 0.347 ± 0.012 | 0.377 ± 0.028 | 0.534 ± 0.014 | 0.507 ± 0.011
17 | FRYLRPAFLLLH | 0.162 ± 0.071 | 0.255 ± 0.029 | 0.355 ± 0.027 | 0.442 ± 0.0055 | 0.0693 ± 0.00084 | 0.0405 ± 0.019 | 0.0854 ± 0.02 | 0.0906 ± 0.031
18 | FSALAPTPLLPL | 0.703 ± 0.055 | 0.7533 ± 0.0046 | 0.672 ± 0.029 | 0.739 ± 0.016 | 0.662 ± 0.029 | 0.671 ± 0.016 | 0.7063 ± 0.0068 | 0.706 ± 0.042
19 | FSFCFCFPLSSL | 0.5603 ± 0.0013 | 0.683 ± 0.053 | 0.528 ± 0.018 | 0.6285 ± 0.0038 | 0.209 ± 0.011 | 0.248 ± 0.013 | 0.407 ± 0.015 | 0.301 ± 0.0084
20 | FSPSPVFVTCRV | 0.247 ± 0.027 | 0.255 ± 0.013 | 0.208 ± 0.047 | 0.343 ± 0.0046 | 0.182 ± 0.0066 | 0.218 ± 0.031 | 0.296 ± 0.011 | 0.356 ± 0.01

Row | Sequence | protein stability index (Saccharomyces cerevisiae [1]; [3]) | protein stability index (Saccharomyces cerevisiae [1]; [4]) | protein stability index (Saccharomyces cerevisiae [1]; [5]) | protein stability index (Saccharomyces cerevisiae [1]; [6]) | protein stability index (Saccharomyces cerevisiae [1]; [7]) | protein stability index (Saccharomyces cerevisiae [1]; [8]) | protein stability index (Saccharomyces cerevisiae [1]; [9]) | protein stability index (Saccharomyces cerevisiae [2])
21 | FTRLDYKRIKIV | 0.184 ± 0.18 | 0.625 ± 0.15 | 0.62 ± 0.017 | 0.768 ± 0.068 | 0.0655 ± 0.014 | 0.0685 ± 0.03 | 0.0698 ± 0.0013 | 0.102 ± 0.024
22 | FVEFCFWCFWVV | 0.481 ± 0.008 | 0.575 ± 0.032 | 0.407 ± 0.012 | 0.578 ± 0.026 | 0.351 ± 0.022 | 0.361 ± 0.026 | 0.499 ± 0.0043 | 0.426 ± 0.005
23 | FVICGMLVHWMV | 0.479 ± 0.04 | 0.536 ± 0.084 | 0.376 ± 0.028 | 0.58244 ± 0.00049 | 0.321 ± 0.0041 | 0.344 ± 0.02 | 0.5356 ± 0.0023 | 0.434 ± 0.01
24 | FVLLCVLEFVAG | 0.104 ± 0.027 | 0.166 ± 0.011 | 0.173 ± 0.025 | 0.299 ± 0.0013 | 0.131 ± 0.004 | 0.151 ± 0.036 | 0.253 ± 0.0087 | 0.27 ± 0.008
25 | FVVFLLFFMLYH | 0.312 ± 0.052 | 0.428 ± 0.019 | 0.317 ± 0.048 | 0.4366 ± 0.0024 | 0.311 ± 0.004 | 0.305 ± 0.025 | 0.411 ± 0.0096 | 0.379 ± 0.043
26 | FVVFYFFLLFGV | 0.318 ± 0.032 | 0.379 ± 0.0099 | 0.298 ± 0.034 | 0.454 ± 0.023 | 0.289 ± 0.006 | 0.264 ± 0.025 | 0.4219 ± 0.0009 | 0.3283 ± 0.00033
27 | FVVVCWFWGGGF | 0.3213 ± 0.0031 | 0.406 ± 0.0042 | 0.283 ± 0.036 | 0.465 ± 0.013 | 0.257 ± 0.012 | 0.27 ± 0.048 | 0.429 ± 0.021 | 0.425 ± 0.026
28 | FWMLCFLCRLTV | 0.3236 ± 0.0019 | 0.338 ± 0.0098 | 0.306 ± 0.043 | 0.459 ± 0.011 | 0.2213 ± 0.0021 | 0.221 ± 0.026 | 0.361 ± 0.0071 | 0.32 ± 0.03
29 | FWVNFLFVLFIL | 0.257 ± 0.023 | 0.233 ± 0.018 | 0.261 ± 0.036 | 0.4 ± 0.027 | 0.263 ± 0.005 | 0.197 ± 0.022 | 0.307 ± 0.02 | 0.296 ± 0.049
30 | FYACRLWLVSVR | 0.161 ± 0.027 | 0.196 ± 0.011 | 0.191 ± 0.023 | 0.313 ± 0.0039 | 0.158 ± 0.007 | 0.184 ± 0.021 | 0.269 ± 0.0029 | 0.29 ± 0.0033
31 | GACRVSSCVVVC | 0.504 ± 0.011 | 0.548 ± 0.024 | 0.37 ± 0.032 | 0.571 ± 0.0072 | 0.316 ± 0.006 | 0.358 ± 0.014 | 0.526 ± 0.0059 | 0.4477 ± 0.0044
32 | GAFAGDVWRCVV | 0.627 ± 0.02 | 0.755 ± 0.02 | 0.653 ± 0.025 | 0.778 ± 0.014 | 0.154 ± 0.0073 | 0.165 ± 0.026 | 0.2682 ± 0.0021 | 0.297 ± 0.024
33 | GALWVLGVVVGG | 0.461 ± 0.0066 | 0.505 ± 0.0085 | 0.365 ± 0.026 | 0.537 ± 0.0094 | 0.329 ± 0.012 | 0.364 ± 0.027 | 0.511 ± 0.013 | 0.467 ± 0.018
34 | GAVRRWGWVSFV | 0.633 ± 0.052 | 0.7476 ± 0.0049 | 0.6425 ± 0.0039 | 0.744 ± 0.013 | 0.173 ± 0.0068 | 0.193 ± 0.0085 | 0.393 ± 0.004 | 0.331 ± 0.044
35 | GAVVYGICFCTN | 0.624 ± 0.011 | 0.617 ± 0.0081 | 0.388 ± 0.031 | 0.637 ± 0.027 | 0.35 ± 0.0049 | 0.363 ± 0.035 | 0.621 ± 0.0069 | 0.442 ± 0.061
36 | GCLVVVGFFSVF | 0.214 ± 0.049 | 0.416 ± 0.041 | 0.255 ± 0.028 | 0.458 ± 0.028 | 0.2 ± 0.011 | 0.241 ± 0.0093 | 0.409 ± 0.018 | 0.326 ± 0.033
37 | GCVLVFFLRLDL | 0.4328 ± 0.0006 | 0.538 ± 0.067 | 0.354 ± 0.034 | 0.557 ± 0.034 | 0.3466 ± 0.0014 | 0.365 ± 0.0072 | 0.562 ± 0.01 | 0.49 ± 0.072
38 | GFALGSFMLVLR | 0.0226 ± 0.0077 | 0.0469 ± 0.019 | 0.0861 ± 0.012 | 0.0844 ± 0.0018 | 0.596 ± 0.037 | 0.0702 ± 0.012 | 0.0617 ± 0.0078 | 0.0977 ± 0.0089
39 | GFCFVFVFQCFF | 0.339 ± 0.0077 | 0.451 ± 0.034 | 0.288 ± 0.031 | 0.431 ± 0.0031 | 0.267 ± 0.0043 | 0.276 ± 0.039 | 0.402 ± 0.014 | 0.394 ± 0.049
